The text below walks through data of article PMC2787667 (Cellular signalling, 2009).

Substitutions are numbered along the chain they refer to. Names may count otherwise.

What all share (assay): FRET or BRET
In data set [1] the target is hFSHR(Y110A,H485A,S488A,M492A,I495A,F504A), as Rluc and GFP2 fusion proteins (human) (UniProt P23945).
The target of data set [2] is hFSHR(H485A,S488A,M492A,I495A,F504A), as Rluc and GFP2 fusion proteins (human) (UniProt P23945).
The data set “FRET or BRET” concerns the molecule itself.

In turn, “hFSHR(Y110A,H485A,S488A,M492A,I495A,F504A), as Rluc and GFP2 fusion proteins (from UniProt P23945 18-695) (receptor)” registered a BRET50 mut/BRET50 wt in data set [1] of 1.29.

As to “hFSHR(H485A,S488A,M492A,I495A,F504A), as Rluc and GFP2 fusion proteins (from UniProt P23945 18-695) (receptor)”, the BRET50 mut/BRET50 wt in data set [2] came to 1.41.

B1: hFSHR(M490A,W494A,I495A), as Rluc and GFP2 fusion proteins (receptor, human, UniProt P23945 18-695, looked up)
chain: CHHRICHCSNRVFLCQESKVTEIPSDLPRNAIELRFVLTKLRVIQKGAFSGFGDLEKIEISQNDVLEVIEADVFSNLPKLHEIRIEKANNLLYINPEAFQNLPNLQYLLISNTGIKHLPDVHKIHSLQKVLLDIQDNINIHTIERNSFVGLSFESVILWLNKNGIQEIHNCAFNGTQLDELNLSDNNNLEELPNDVFHGASGPVILDISRTRIHSLPSYGLENLKKLRARSTYNLKKLPTLEKLVALMEASLTYPSHCCAFANWRRQISELHPICNKSILRQEVDYMTQARGQRSSLAEDNESSYSRGFDMTYTEFDYDLCNEVVDVTCSPKPDAFNPCEDIMGYNILRVLIWFISILAITGNIIVLVILTTSQYKLTVPRFLMCNLAFADLCIGIYLLLIASVDIHTKSQYHNYAIDWQTGAGCDAAGFFTVFASELSVYTLTAITLERWHTITHAMQLDCKVQLRHAASVAVMGAAFAFAAALFPIFGISSYMKVSICLPMDIDSPLSQLYVMSLLVLNVLAFVVICGCYIHIYLTVRNPNIVSSSSDTRIAKRMAMLIFTDFLCMAPISFFAISASLKVPLITVSKAKILLVLFHPINSCANPFLYAIFTKNFRRDFFILLSKCGCYEMQAQIYRTETSSTVHNTHPRNGHCSSAPRVTSGSTYILVPLSHLAQN
On to B1, for which the “BRET50 mut/BRET50 wt” value in “FRET or BRET” is 1.5 ratio.

B2: hFSHR(W436A,W494A), as Rluc and GFP2 fusion proteins (receptor, human, UniProt P23945 18-695, looked up)
chain: B1 chain with W419A, A473M, A478I
In the case of B2, the “BRET50 mut/BRET50 wt” value in “FRET or BRET” came to 1.29 ratio.

B3: hFSHR(I382A,V383A,M490A,V491A), as Rluc and GFP2 fusion proteins (receptor, human, UniProt P23945 18-695, looked up)
chain: B1 chain with I365A, V366A, V474A, A477W, A478I
Turning to B3, the “BRET50 mut/BRET50 wt” value in “FRET or BRET” was found to be 0.934 ratio.

B4: hFSHR(Y110A), full-length, as Rluc and GFP2 fusion proteins (receptor, human, UniProt P23945 18-695, looked up)
chain: B1 chain with Y93A, A473M, A477W, A478I
Turning to B4, the “BRET50 mut/BRET50 wt” value in the data set “FRET or BRET” amounted to 1.74 ratio.

B5: hFSHR(I381A,V491A), as Rluc and GFP2 fusion proteins (receptor, human, UniProt P23945 18-695, looked up)
chain: B1 chain with I364A, A473M, V474A, A477W, A478I
With B5, the “BRET50 mut/BRET50 wt” value in the data set “FRET or BRET” was determined as 1.69 ratio.
